{
  "source": "patent US20050234221A1",
  "biological_target": "IL-17 receptor like polypeptide on human B-lymphoblast cell line GM3104A (human) (UniProt Q9NRM6)",
  "assay": "cell-based or functional assay",
  "data": [
    {"substance": "recombinant human IL-17E-Fc fusion protein", "values": [
      {"measurement": "IL-1α (pg/ml) released by GM3104A cells", "value": 25, "unit": "pg/mL"},
      {"measurement": "IL-6 (pg/ml) released by GM3104A cells", "value": 362, "unit": "pg/mL"},
      {"measurement": "TNF-α (pg/ml) released by GM3104A cells", "value": 460, "unit": "pg/mL"}
    ]}
  ]
}
